Results: article PMC6348830, “In Vivo Biokinetics of ^177Lu-OPS201 in Mice and Pigs as a Model for Predicting Human Dosimetry” (Contrast Media & Molecular Imaging, 2019)
Positions of bridges follow the written chain, without caps; N, C: chain ends. Non-standard residues stand in square brackets, D forms with d. Residues, ends and D or L forms follow the SMILES beside them. *: point of attachment. DOTA = O=C(O)CN1CCN(CC(=O)O)CCN(CC(=O)*)CCN(CC(=O)O)CC1; dPhe(4-NHCONH2) = NC(=O)Nc1ccc(C[C@@H](N)C(=O)O)cc1; Dihydroorotyl(S) = O=C1C[C@@H](C(=O)*)NC(=O)N1; Phe(4-Cl) = N[C@@H](Cc1ccc(Cl)cc1)C(=O)O; Phe(4-NH2) = Nc1ccc(C[C@H](N)C(=O)O)cc1

Legend:
[1] = in vivo; design: species or system Danish Landrace pigs; details: both sexes, Danish Landrace, pig, total radioactivity
Protocol: (§1) For analyzing the biokinetics of ^177Lu-labeled peptides in preclinical and clinical studies, the data of ^177Lu-OPS201 athymic nude Foxn1nu mice (28 females, weight: 26 ± 1 g, age: 8–9 weeks), Danish Landrace pigs (3 females-1 male, weight: 28 ± 2 kg, age: 3 months), and patients (3 females-1 male, weight: 61 ± 17 kg, age: 44–77 years) with administered activities of 0.19–0.27 MBq (mice, 0.017 µg of peptide), 97–113 MBq (pigs, 9 µg of peptide), and 850–1086 MBq (patients, 55–106 µg of peptide) were included. For pigs and patients, kidney protection was applied.
(§2) After administration of ^177Lu-OPS201, blood samples were taken up to 72 h for mice, up to 300 h for pigs, and up to 23 h for patients in order to measure the blood radioactivity contents by using the same well-type gamma counter (Packard Instruments). The human blood data were, originally, provided as relative values, normalized to the first blood sample immediately taken after injection. In order to convert the raw count values to blood uptake values per mL human blood in each time point, human blood data were quantified (in Bq/mL) retrospectively by using the same calibration factor as for the mouse study.
After injection, multiple whole body (WB) planar images and SPECT/CT scans were acquired at 0.5, 2, 3, 4, 50, 100, 150, and 250 h to quantify the uptake in the kidneys and liver. […]

[2] = clinical; design: species or system patients (humans); details: both sexes, human, in vivo, total radioactivity
Protocol: as §1
as §2, with “The human blood data were, originally, provided as relative values, normalized to the first blood sample immediately taken after injection.” left out, “study. […]” for “study.”
To quantify the amount of activity, the average percentage values corresponding to the injected radioactivity (A%) per organ as a function of time were calculated for the liver, right kidney, left kidney, and blood for each species via a manual VOI analysis (for pigs and patients) and via gamma counter (for mice). […]

[3] = human, in vivo; cited from earlier work
Protocol: The fast blood clearance of the OPS201 in the first phase (<56 h) for each species was in agreement with studies of the agonist. […] For humans, most likely because of the short observation period, the value was lower (0.5 h). For the late phase in pigs, our result (58 h) is also close to the results obtained in the human study with the agonist (43 h). Part of an ongoing phase 1 study with ^177Lu-OPS201 in patients with SSTR-posi ...

SMILES	tissue uptake dose at 10 min [1] [%ID]	tissue uptake dose at 10 min [2] [%ID]	half-life of late phase, blood [3] [h]	mean effective half-life of first phase, blood [3] [h]
C[C@@H](O)[C@@H]1NC(=O)[C@H](CCCCN)NC(=O)[C@@H](Cc2ccc(NC(N)=O)cc2)NC(=O)[C@H](Cc2ccc(NC(=O)[C@@H]3CC(=O)NC(=O)N3)cc2)NC(=O)[C@H](NC(=O)[C@H](Cc2ccc(Cl)cc2)NC(=O)CN2CCN(CC(=O)O)CCN(CC(=O)O)CCN(CC(=O)O)CC2)CSSC[C@@H](C(=O)N[C@H](Cc2ccc(O)cc2)C(N)=O)NC1=O [177Lu-OPS201, metal not drawn] ({DOTA}-[Phe(4-Cl)][dC][Phe(4-NH2)](Dihydroorotyl(S))[dPhe(4-NHCONH2)]KTC[dY]-NH2; disulfide 2-7)	< 5	< 5	–	–
C[C@@H](O)[C@H](NC(=O)[C@@H]1CSSC[C@H](NC(=O)[C@@H](Cc2ccccc2)NC(=O)CN2CCN(CC(=O)[O-])CCN(CC(=O)[O-])CCN(CC(=O)[O-])CC2)C(=O)N[C@@H](Cc2ccc(O)cc2)C(=O)N[C@H](Cc2c[nH]c3ccccc23)C(=O)N[C@@H](CCCCN)C(=O)N[C@@H]([C@@H](C)O)C(=O)N1)C(=O)O.[177Lu+3] [177Lu-octreotate, DOTA-[Tyr3]octreotate]	–	–	43	1.6
